Experimental findings from IntAct's records for PubMed 23706739 are described below.

First the molecules themselves.
B1: Proteasome activator complex subunit 4 (Homo sapiens), Q14997 (parent)
chain: MEPAERAGVGEPPEPGGRPEPGPRGFVPQKEIVYNKLLPYAERLDAESDLQLAQIKCNLGRAVQLQELWPGGLFWTRKLSTYIRLYGRKFSKEDHVLFIKLLYELVSIPKLEISMMQGFARLLINLLKKKELLSRADLELPWRPLYDMVERILYSKTEHLGLNWFPNSVENILKTLVKSCRPYFPADATAEMLEEWRPLMCPFDVTMQKAITYFEIFLPTSLPPELHHKGFKLWFDELIGLWVSVQNLPQWEGQLVNLFARLATDNIGYIDWDPYVPKIFTRILRSLNLPVGSSQVLVPRFLTNAYDIGHAVIWITAMMGGPSKLVQKHLAGLFNSITSFYHPSNNGRWLNKLMKLLQRLPNSVVRRLHRERYKKPSWLTPVPDSHKLTDQDVTDFVQCIIQPVLLAMFSKTGSLEAAQALQNLALMRPELVIPPVLERTYPALETLTEPHQLTATLSCVIGVARSLVSGGRWFPEGPTHMLPLLMRALPGVDPNDFSKCMITFQFIATFSTLVPLVDCSSVLQERNDLTEVERELCSATAEFEDFVLQFMDRCFGLIESSTLEQTREETETEKMTHLESLVELGLSSTFSTILTQCSKEIFMVALQKVFNFSTSHIFETRVAGRMVADMCRAAVKCCPEESLKLFVPHCCSVITQLTMNDDVLNDEELDKELLWNLQLLSEITRVDGRKLLLYREQLVKILQRTLHLTCKQGYTLSCNLLHHLLRSTTLIYPTEYCSVPGGFDKPPSEYFPIKDWGKPGDLWNLGIQWHVPSSEEVSFAFYLLDSFLQPELVKLQHCGDGKLEMSRDDILQSLTIVHNCLIGSGNLLPPLKGEPVTNLVPSMVSLEETKLYTGLEYDLSRENHREVIATVIRKLLNHILDNSEDDTKSLFLIIKIIGDLLQFQGSHKHEFDSRWKSFNLVKKSMENRLHGKKQHIRALLIDRVMLQHELRTLTVEGCEYKKIHQDMIRDLLRLSTSSYSQVRNKAQQTFFAALGAYNFCCRDIIPLVLEFLRPDRQGVTQQQFKGALYCLLGNHSGVCLANLHDWDCIVQTWPAIVSSGLSQAMSLEKPSIVRLFDDLAEKIHRQYETIGLDFTIPKSCVEIAELLQQSKNPSINQILLSPEKIKEGIKRQQEKNADALRNYENLVDTLLDGVEQRNLPWKFEHIGIGLLSLLLRDDRVLPLRAIRFFVENLNHDAIVVRKMAISAVAGILKQLKRTHKKLTINPCEISGCPKPTQIIAGDRPDNHWLHYDSKTIPRTKKEWESSCFVEKTHWGYYTWPKNMVVYAGVEEQPKLGRSREDMTEAEQIIFDHFSDPKFVEQLITFLSLEDRKGKDKFNPRRFCLFKGIFRNFDDAFLPVLKPHLEHLVADSHESTQRCVAEIIAGLIRGSKHWTFEKVEKLWELLCPLLRTALSNITVETYNDWGACIATSCESRDPRKLHWLFELLLESPLSGEGGSFVDACRLYVLQGGLAQQEWRVPELLHRLLKYLEPKLTQVYKNVRERIGSVLTYIFMIDVSLPNTTPTISPHVPEFTARILEKLKPLMDVDEEIQNHVMEENGIGEEDERTQGIKLLKTILKWLMASAGRSFSTAVTEQLQLLPLFFKIAPVENDNSYDELKRDAKLCLSLMSQGLLYPHQVPLVLQVLKQTARSSSWHARYTVLTYLQTMVFYNLFIFLNNEDAVKDIRWLVISLLEDEQLEVREMAATTLSGLLQCNFLTMDSPMQIHFEQLCKTKLPKKRKRDPGSVGDTIPSAELVKRHAGVLGLGACVLSSPYDVPTWMPQLLMNLSAHLNDPQPIEMTVKKTLSNFRRTHHDNWQEHKQQFTDDQLLVLTDLLVSPCYYA

In this experiment the parent is B1. As to conditions: with h4_human H4C16, P62805.
Regarding N1716T;F1717S, the “effect of a mutation on the interaction” value was “disrupting interaction strength”.
